The test system of data set [1] is HeLa Kyoto. As to the kind of experiment: solubility in G1/S (NP-40 vs SDS abundance) (log2 ratio); higher = more soluble. The conditions noted are these: cell cycle stage: G1/S.
In data set [2] the test system is HeLa Kyoto. As to the kind of experiment: melting temperature (median over replicates), in situ; higher = more thermally stable.
Data set [3] deals with HeLa Kyoto. Briefly: solubility change mitosis vs G1/S (difference of NP-40 vs SDS log2 ratios) (log2 ratio difference); higher = more soluble in mitosis.
Data set [4] has as its system HeLa Kyoto. Briefly: thermal stability score vs G1/S (z-score of summed log2 fold changes over temperatures); higher = more thermally stable than in G1/S.
Setting [5] is: cell cycle stage: early G1 (4.5 h after nocodazole release).
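Wherever melting temperature (median over replicates), in situ is given: HeLa Kyoto cells synchronized by double thymidine or nocodazole block, proteins quantified by TMT10plex mass spectrometry, three independent biological replicates.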
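Wherever solubility change mitosis vs G1/S (difference of NP-40 vs SDS log2 ratios) is given: synchronized HeLa Kyoto cells (double thymidine block for G1/S, nocodazole release for mitosis), protein amounts in NP-40 versus SDS lysates quantified by mass spectrometry, three biological replicates.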
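Wherever solubility in G1/S (NP-40 vs SDS abundance) is given: HeLa Kyoto cells arrested at G1/S by double thymidine block, proteins quantified by TMT10plex mass spectrometry in mild NP-40 versus SDS extracts, three biological replicates.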
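Wherever thermal stability score vs G1/S (z-score of summed log2 fold changes over temperatures) is given: synchronized HeLa Kyoto cells, proteins quantified by TMT10plex mass spectrometry, three biological replicates, mitosis taken 0.5 h after nocodazole release, G1/S directly after double thymidine block.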

Consider “MATRSCREKAQKLNEQHQLILSKLLREEDNKYCADCEAKGPRWASWNIGVFICIRCAGIHRNLGVHISRVKSVNLDQWTAEQIQCMQDMGNTKARLLYEANLPENFRRPQTDQAVEFFIRDKYEKKKYYDKNAIAITNISSSDAPLQPLVSSPSLQAAVDKNKLEKEKEKKKEEKKREKEPEKPAKPLTAEKLQKKDQQLEPKKSTSPKKAAEPTVDLLGLDGPAVAPVTNGNTTVPPLNDDLDIFGPMISNPLPATVMPPAQGTPSAPAAATLSTVTSGDLDLFTEQTTKSEEVAKKQLSKDSILSLYGTGTIQQQSTPGVFMGPTNIPFTSQAPAAFQGFPSMGVPVPAAPGLIGNVMGQSPSMMVGMPMPNGFMGNAQTGVMPLPQNVVGPQGGMVGQMGAPQSKFGLPQAQQPQWSLSQMNQQMAGMSISSATPTAGFGQPSSTTAGWSGSSSGQTLSTQLWK [SMAP1]”, for which the “solubility in G1/S (log2)” value in the data set on HeLa Kyoto [1] is -0.0223. In addition, the melting temperature came out at 51.2 °C with HeLa Kyoto [2] (cell cycle stage: G1/S) and 51.3 °C in the data set on HeLa Kyoto [2] (cell cycle stage: mitosis). The “solubility change mitosis (log2)” value with HeLa Kyoto [3] was -0.142. Further, the thermal stability score in the data set on HeLa Kyoto [4] (setting [5]) was 0.468; in the data set on HeLa Kyoto [4] (cell cycle stage: mitosis), -0.266.
As to “MATRSPGVVISDDEPGYDLDLFCIPNHYAEDLERVFIPHGLIMDRTERLARDVMKEMGGHHIVALCVLKGGYKFFADLLDYIKALNRNSDRSIPMTVDFIRLKSYCNDQSTGDIKVIGGDDLSTLTGKNVLIVEDIIDTGKTMQTLLSLVRQYNPKMVKVASLLVKRTPRSVGYKPDFVGFEIPDKFVVGYALDYNEYFRDLNHVCVISETGKAKYKA [HPRT1]”, the “solubility in G1/S (log2)” value in the data set with HeLa Kyoto [1] was found to be 0.209. In addition, the melting temperature in the data set with HeLa Kyoto [2] (cell cycle stage: G1/S) is 58.5 °C; in the data set on HeLa Kyoto [2] (cell cycle stage: mitosis) it was 59.7 °C. Moreover, in the data set with HeLa Kyoto [3], the “solubility change mitosis (log2)” value was -0.113. Moreover, the thermal stability score in the data set with HeLa Kyoto [4] (setting [5]) is -0.74; with HeLa Kyoto [4] (cell cycle stage: mitosis) it was -3.12.
In the case of “MATSAPLRSLEEEVTCSICLDYLRDPVTIDCGHVFCRSCTTDVRPISGSRPVCPLCKKPFKKENIRPVWQLASLVENIERLKVDKGRQPGEVTREQQDAKLCERHREKLHYYCEDDGKLLCVMCRESREHRPHTAVLMEKAAQPHREKILNHLSTLRRDRDKIQGFQAKGEADILAALKKLQDQRQYIVAEFEQGHQFLREREEHLLEQLAKLEQELTEGREKFKSRGVGELARLALVISELEGKAQQPAAELMQDTRDFLNRYPRKKFWVGKPIARVVKKKTGEFSDKLLSLQRGLREFQGKLLRDLEYKTVSVTLDPQSASGYLQLSEDWKCVTYTSLYKSAYLHPQQFDCEPGVLGSKGFTWGKVYWEVEVEREGWSEDEEEGDEEEEGEEEEEEEEAGYGDGYDDWETDEDEESLGDEEEEEEEEEEEVLESCMVGVARDSVKRKGDLSLRPEDGVWALRLSSSGIWANTSPEAELFPALRPRRVGIALDYEGGTVTFTNAESQELIYTFTATFTRRLVPFLWLKWPGTRLLLRP [TRIM26]”, the “solubility in G1/S (log2)” value in the data set with HeLa Kyoto [1] is -1.13. In the data set with HeLa Kyoto [2] (cell cycle stage: G1/S), this sequence had a melting temperature of 51.2 °C. Besides, the “solubility change mitosis (log2)” value in the data set with HeLa Kyoto [3] was -0.225. Besides, the thermal stability score was 0.882 with HeLa Kyoto [4] (setting [5]) and 3.9 in the data set with HeLa Kyoto [4] (cell cycle stage: mitosis).
On to “MATSMAAASGRFESAKSIEERKEQTRNARAEVLRQAKANFEKEERRKELKRLRGEDTWMLPDVNERIEQFSQEHSVKKKKKKDKHSKKAKKEKKKKSKKQKYEKNNESSDSSSSSEDEWVEAVPSQTPDKEKAWKVKDEKSGKDDTQIIKRDEWMTVDFMSVKTVSSSSLKAEKETMRKIEQEKNQALEQSKLMERELNPYWKDGGTGLPPEDCSVSSITKVSVVEDGGLSWLRKSYLRMKEQAEKQSRNFEDIVAERYGSMEIFQSKLEDAEKAASTKEDYRRERWRKPTYSDKAQNCQESRESDLVKYGNSSRDRYATTDTAKNSNNEKFIGDEKDKRPGSLETCRRESNPRQNQEFSFGNLRAKFLRPSDDEELSFHSKGRKFEPLSSSSALVAQGSLCSGFRKPTKNSEERLTSWSRSDGRGDKKHSNQKPSETSTDEHQHVPEDPREKSQDEVLRDDPPKKEHLRDTKSTFAGSPERESIHILSVDEKNKLGAKIIKAEMMGNMELAEQLKVQLEKANKFKETITQIPKKSGVENEDQQEVILVRTDQSGRVWPVNTPGKSLESQGGRRKRQMVSTHEERERVRYFHDDDNLSLNDLVKNEKMGTAENQNKLFMRMASKFMGKTDGDYYTLDDMFVSKAAERERLGEEEENQRKKAIAEHRSLAAQMEKCLYCFDSSQFPKHLIVAIGVKVYLCLPNVRSLTEGHCLIVPLQHHRAATLLDEDIWEEIQMFRKSLVKMFEDKGLDCIFLETNMSMKKQYHMVYECIPLPKEVGDMAPIYFKKAIMESDEEWSMNKKLIDLSSKDIRKSVPRGLPYFSVDFGLHGGFAHVIEDQHKFPHYFGKEIIGGMLDIEPRLWRKGIRESFEDQRKKALQFAQWWKPYDFTKSKNY [CWF19L2]”, for which, in the data set on HeLa Kyoto [1], the “solubility in G1/S (log2)” value was -0.379. The melting temperature with HeLa Kyoto [2] (cell cycle stage: G1/S) stood at 49.4 °C; in the data set on HeLa Kyoto [2] (cell cycle stage: mitosis), 49.2 °C. For the same sequence, in the data set on HeLa Kyoto [3], the “solubility change mitosis (log2)” value amounted to 0.121. Moreover, the thermal stability score in the data set with HeLa Kyoto [4] (setting [5]) came to 0.398; in the data set with HeLa Kyoto [4] (cell cycle stage: mitosis), 2.26.
With “MATSVGHRCLGLLHGVAPWRSSLHPCEITALSQSLQPLRKLPFRAFRTDARKIHTAPARTMFLLRPLPILLVTGGGYAGYRQYEKYRERELEKLGLEIPPKLAGHWEVALYKSVPTRLLSRAWGRLNQVELPHWLRRPVYSLYIWTFGVNMKEAAVEDLHHYRNLSEFFRRKLKPQARPVCGLHSVISPSDGRILNFGQVKNCEVEQVKGVTYSLESFLGPRMCTEDLPFPPAASCDSFKNQLVTREGNELYHCVIYLAPGDYHCFHSPTDWTVSHRRHFPGSLMSVNPGMARWIKELFCHNERVVLTGDWKHGFFSLTAVGATNVGSIRIYFDRDLHTNSPRHSKGSYNDFSFVTHTNREGVPMRKGEHLGEFNLGSTIVLIFEAPKDFNFQLKTGQKIRFGEALGSL [PISD]”, the “solubility in G1/S (log2)” value with HeLa Kyoto [1] was -0.127. Moreover, the results for the melting temperature with HeLa Kyoto [2] (cell cycle stage: G1/S) and in the data set with HeLa Kyoto [2] (cell cycle stage: mitosis) were 51.7 °C and 50.9 °C, respectively. Besides, in the data set on HeLa Kyoto [3], the “solubility change mitosis (log2)” value is -0.00593. Besides, the figures for the thermal stability score with HeLa Kyoto [4] (setting [5]) and in the data set with HeLa Kyoto [4] (cell cycle stage: mitosis) were -1.35 and -0.739, respectively.

These data come from the supplement of paper PMC5998384.
